This note sets out measurements from patent US20220267469A1 (LIPUM, published 2022).

Residue numbers refer to the chain shown, from its start. Numbers in names are those of the source.

T1: Mouse BSSL, recombinant (mouse, UniProt Q64285 21-599)
T1 construct: Bought (R&D Systems, Cat. no 5658-CE); also called mBSSL; murine BSSL
T1 sequence: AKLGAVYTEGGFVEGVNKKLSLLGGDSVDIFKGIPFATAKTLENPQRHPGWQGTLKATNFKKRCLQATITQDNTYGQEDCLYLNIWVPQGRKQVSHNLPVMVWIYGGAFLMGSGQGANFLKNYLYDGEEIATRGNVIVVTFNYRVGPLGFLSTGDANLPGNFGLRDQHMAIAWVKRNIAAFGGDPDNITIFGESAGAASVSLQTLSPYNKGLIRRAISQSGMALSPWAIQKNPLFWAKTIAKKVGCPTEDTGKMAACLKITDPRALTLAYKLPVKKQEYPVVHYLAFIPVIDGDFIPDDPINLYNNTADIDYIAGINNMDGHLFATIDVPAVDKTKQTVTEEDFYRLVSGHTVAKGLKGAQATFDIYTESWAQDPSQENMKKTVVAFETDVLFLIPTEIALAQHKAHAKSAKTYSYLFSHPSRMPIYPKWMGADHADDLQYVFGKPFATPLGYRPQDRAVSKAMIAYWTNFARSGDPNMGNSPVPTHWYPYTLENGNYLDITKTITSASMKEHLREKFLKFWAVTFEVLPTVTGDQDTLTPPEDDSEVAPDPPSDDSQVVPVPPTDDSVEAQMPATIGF

T2: Human BSSL (bile salt-stimulated lipase), native (human, UniProt P19835 21-753)
T2 construct: Native full-length protein purified from human milk (Astra Hässle AB); also called hBSSL; non-biotinylated human BSSL
T2 sequence: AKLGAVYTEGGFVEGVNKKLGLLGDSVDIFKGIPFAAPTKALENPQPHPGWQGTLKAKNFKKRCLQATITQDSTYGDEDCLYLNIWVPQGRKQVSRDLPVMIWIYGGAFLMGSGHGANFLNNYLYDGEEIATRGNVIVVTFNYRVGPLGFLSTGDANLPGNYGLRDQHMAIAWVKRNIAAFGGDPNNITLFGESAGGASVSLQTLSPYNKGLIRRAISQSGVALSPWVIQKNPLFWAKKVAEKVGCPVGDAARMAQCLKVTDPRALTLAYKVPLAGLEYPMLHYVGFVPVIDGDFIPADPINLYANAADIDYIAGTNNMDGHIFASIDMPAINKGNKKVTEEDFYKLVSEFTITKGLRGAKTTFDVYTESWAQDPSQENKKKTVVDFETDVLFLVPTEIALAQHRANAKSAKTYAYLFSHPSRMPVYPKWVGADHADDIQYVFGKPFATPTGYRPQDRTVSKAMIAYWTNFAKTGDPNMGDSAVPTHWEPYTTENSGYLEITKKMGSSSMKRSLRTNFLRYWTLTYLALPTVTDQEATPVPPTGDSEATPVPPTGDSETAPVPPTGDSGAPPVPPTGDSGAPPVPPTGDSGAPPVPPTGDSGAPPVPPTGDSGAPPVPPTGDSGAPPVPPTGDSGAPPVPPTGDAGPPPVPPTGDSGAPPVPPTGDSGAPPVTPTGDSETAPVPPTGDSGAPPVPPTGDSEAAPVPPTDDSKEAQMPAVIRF

T3: Biotinylated human BSSL (human, UniProt P19835 21-753, Biotinylated on glycosacarides, 30-40 biotin/BSSL)
T3 construct: hBSSL biotinylated in house; also called b-hBSSL; human BSSL-biotin
T3 sequence: T2 sequence

B1: S-SL048-14 hIgG4 S228P (antibody, V domains shown)
VH: QVQLVQSGAEVKKPGASVKVSCKASGYTFTSYNMHWVRQAPGQGLEWMGVINPGDGATSYAQKFKGRVTMTRDTSTSTVYMELSSLRSEDTAVYYCARDYYGSSPLGYWGQGTLVTVSS
VL: DIQMTQSPSSLSASVGDRVTITCRASPSISYLNWYQQKPGKAPKLLIYATSRLPSGVPSRFSGSGSGTDFTLTISSLQPEDFATYYCQQRSSSPTFGQGTKLEIK
notes: Tested as human IgG4 S228P
B2: S-SL048-74 hIgG4 S228P (antibody, V domains shown)
VH: B1 VH with M48I, K65Q
VL: B1 VL with P27Q, T50A, R52S, P54A, Q88H
notes: Tested as human IgG4 S228P
B3: S-SL048-38 hIgG4 S228P (antibody, V domains shown)
VH: B1 VH with K65Q
VL: B1 VL with R52S, P54A
notes: Tested as human IgG4 S228P
B4: S-SL048-103 hIgG4 S228P (antibody, V domains shown)
VH: B1 VH
VL: B1 VL with P27S, L32M, N33H, R52S, P54A, Q88H
notes: Tested as human IgG4 S228P
B5: S-SL048-125 hIgG4 S228P (antibody, V domains shown)
VH: B1 VH with M48I, K65Q
VL: B1 VL with P27S, N33H, T50A, Q88H, S93Y
notes: Tested as human IgG4 S228P
B6: S-SL048-131 hIgG4 S228P (antibody, V domains shown)
VH: B1 VH with M48I
VL: B1 VL with T50A, R52K, P54A, Q88H
notes: Tested as human IgG4 S228P
B7: S-SL048-40 hIgG4 S228P (antibody, V domains shown)
VH: B1 VH with M48I, G54S, K65Q
VL: B1 VL with P27S, T50A
notes: Tested as human IgG4 S228P
B8: S-SL048-65 hIgG4 S228P (antibody, V domains shown)
VH: B1 VH with M48I
VL: B1 VL with R24S, P27Q, A49D, T50A, R52S, Q88H
notes: Tested as human IgG4 S228P
B9: S-SL048-41 hIgG4 S228P (antibody, V domains shown)
VH: B1 VH with M48I, N52Y
VL: B1 VL with P27S, L32M, Q88H
notes: Tested as human IgG4 S228P
B10: S-SL048-48 hIgG4 S228P (antibody, V domains shown)
VH: B1 VH with M48I, K65Q
VL: B1 VL with L32M, P54Q, Q88H
notes: Tested as human IgG4 S228P

One experiment addresses T1, Mouse BSSL, recombinant. Nature of the experiment: SPR steady state, hIgG4 S228P captured by anti-Fab. On the procedure: (§1) Kinetic parameters of the hIgG4 S228P clones were determined by SPR using BIACORE® T200 (GE Healthcare). Single cycle kinetics was used to measure the affinity of the purified hIgG4 molecules to human and mouse BSSL. An anti-Fab antibody (GE Healthcare, #28958325) was immobilized on a CM5 S sensor chip by primary amine coupling using NHS-EDC chemistry. hIgG4 was captured by the anti-Fab antibody, and subsequently, five different concentrations of hBSSL (1:5 dilutions starting from 50 nM) or mBSSL (1:5 dilutions starting from 500 nM) were injected over the surface. The sensor chip surface was regenerated with 10 mM glycine-HCl pH 2.1. For binding to human BSSL, single cycle kinetic data was fitted to a 1:1 binding model and kinetic parameters were retrieved using software BlAevaluation. For mouse BSSL, a steady state analysis was performed by plotting the response level at equilibrium against each concentration, and KD values were retrieved by the BlAevalution software.
Regarding B1, the Kd came out at 89 nM.
Same read-out and setting: the value for B2 was 21 nM; that for B3 was 67 nM; that for B4 was 199 nM.
With B5, the Kd came out at 123 nM.
Turning to B6, the Kd was 63 nM.
Same read-out and setting: the value for B7 was 87 nM; that for B8 was 30 nM; that for B9 was 79 nM.
Turning to B10, the Kd turned out to be 41 nM.

Another experiment has as its target T2, Human BSSL (bile salt-stimulated …). The experiment in a line: SPR single cycle kinetics, hIgG4 S228P captured by anti-Fab. How it is done:
as §1
On to B1, for which the Kd was found to be 0.9 nM.
Turning to B2, the Kd amounted to 4.8 nM.
Consider B3, for which the Kd was 1 nM.
For B4, the Kd was determined as 1.7 nM.
With B5, the Kd was determined as 2.1 nM.
The same measure, in the same setting: with B6 the figure was 2.7 nM; with B7, 1 nM; with B9, 1.2 nM.
On to B10, for which the Kd came out at 0.8 nM.

The next experiment concerns the target T3, Biotinylated human BSSL. Nature of the experiment: flow cytometry displacement assay; 0.5 ug antibody, 1 ug b-hBSSL. How it is done: (§2) The 28 BSSL-specific hIgG4 antibodies and the five reference antibodies at different concentrations (ranging from 0.5 μg to 3.0 μg per reaction; see Table 10) were added to b-hBSSL (1 μg per reaction, see Table 2) in round-bottom polystyrene tubes, lx PBS (pH 7.4) was added to a final volume of 20 μl and the antibody/b-hBSSL mixtures were incubated for 30 min. at +4° C. to facilitate binding of antibodies to BSSL. Buffy coat (50 μl) was then added to each antibody/b-hBSSL mixture and incubation continued for another 30 min at +4° C. Thereafter, 2 ml of FACS lysing solution (BD Biosciences) was added and the cells were incubated for 10 min at room temperature in order to lyse erythrocytes and fix the white blood cells. The cells were then centrifuged for 5 min. at 200×g, the resulting pellets were washed by adding 2 ml of FACS buffer (1×PBS supplemented with 1% FCS and 0.1% NaN3) and centrifuged again. Finally, the supernatants were discarded and the cells were resuspended in the last drop of liquid, approximately 50 μl.
(§3) 5 μl of BV421-labelled anti-human CD14 (BD Biosciences) and 5 μl of BB515-labelled streptavidin (BD Biosciences) was added to each tube and incubated for 30 min, at +4° C., protected from light. Thereafter, cells were washed twice with FACS buffer, resuspended in 500 μl FACS buffer, and run on BD LSRII flow cytometer (BD Biosciences). Finally, data were analyzed using FlowJo software (BD Biosciences).
With B1, the “percentage reduction of b-hBSSL binding to CD14+ monocytes” value (“percentage reduction of b-hBSSL binding” below) stood at 11%.
Still for that read-out and setting: with B3 the figure was 6%.
Same read-out and setting: the value for B4 was 12%; that for B7 was 20%; that for B8 was 5%.
The same measure, in the same setting: the value for B9 was 12%.
On to B10, for which the “percentage reduction of b-hBSSL binding” value was found to be 28%.

In the next experiment the target is T3, Biotinylated human BSSL. Nature of the experiment: flow cytometry displacement assay; 1.0 ug antibody, 1 ug b-hBSSL. How it is done:
as §2, §3
As for B1, the “percentage reduction of b-hBSSL binding” value was 32%.
Same read-out and setting: the value for B3 was 44%.
Turning to B4, the “percentage reduction of b-hBSSL binding” value is -1%.
With B7, the “percentage reduction of b-hBSSL binding” value was 28%.
Consider B8, for which the “percentage reduction of b-hBSSL binding” value worked out at 23%.
As to B9, the “percentage reduction of b-hBSSL binding” value was found to be 29%.
For B10, the “percentage reduction of b-hBSSL binding” value amounted to 23%.

Another experiment has as its target T3, Biotinylated human BSSL. The experiment in a line: flow cytometry displacement assay; 1.5 ug antibody, 1 ug b-hBSSL. How it is done:
as §2, §3
B1: the “percentage reduction of b-hBSSL binding” value amounted to 48%.
As for B2, the “percentage reduction of b-hBSSL binding” value was 29%.
With B3, the “percentage reduction of b-hBSSL binding” value was 52%.
On the same count and under the same terms, the value for B4 was 26%.
Regarding B5, the “percentage reduction of b-hBSSL binding” value worked out at 9%.
Same read-out and setting: with B6 the figure was 31%; with B7, 44%.
On the same count and under the same terms, with B8 the figure was 21%; with B9, 51%.
In the case of B10, the “percentage reduction of b-hBSSL binding” value was determined as 50%.

The next experiment has as its target T3, Biotinylated human BSSL. The experiment in a line: flow cytometry displacement assay; 2.0 ug antibody, 1 ug b-hBSSL. On the procedure: as §2, §3
For B8, the “percentage reduction of b-hBSSL binding” value came to 35%.
As to B9, the “percentage reduction of b-hBSSL binding” value was 71%.
Still for that read-out and setting: the value for B10 was 61%.

The target in a further experiment is T3, Biotinylated human BSSL. The experiment in a line: flow cytometry displacement assay; 3.0 ug antibody, 1 ug b-hBSSL. How it is done: as §2, §3
Take B1: the “percentage reduction of b-hBSSL binding” value came to 56%.
Still for that read-out and setting: with B2 the figure was 52%.
Same read-out and setting: the value for B3 was 51%; that for B4 was 69%; that for B5 was 33%.
As to B6, the “percentage reduction of b-hBSSL binding” value was determined as 58%.
Still for that read-out and setting: the value for B7 was 53%.
For B8, the “percentage reduction of b-hBSSL binding” value amounted to 39%.
B9: the “percentage reduction of b-hBSSL binding” value turned out to be 72%.
On the same count and under the same terms, with B10 the figure was 68%.
